Changes are numbered by the printed parent chain.

This passage reports Kd results from publication PMC8486872 (2021).

Sequences and labels used below:
B1: LD3_v3 (designed binder)
chain: QRWELALGRFLEYLSWVSTLSEQVQEELLSSQVTQELRALMDETMKELKAYKSELEEQLTPVAEETRARLSKELQAAQARLGADMEDVRGRLVQYRGEVQAMLGQSTEELRVRLASHLIALALRLIGAAFDLQKRLAVY
B2: LD3_v2 (designed binder)
chain: B1 chain with R124A, A128D
B3: LD3_v1 (designed binder)
chain: B1 chain with E12A, A128D

Sequence of Bcl2 (P10415 whole entry): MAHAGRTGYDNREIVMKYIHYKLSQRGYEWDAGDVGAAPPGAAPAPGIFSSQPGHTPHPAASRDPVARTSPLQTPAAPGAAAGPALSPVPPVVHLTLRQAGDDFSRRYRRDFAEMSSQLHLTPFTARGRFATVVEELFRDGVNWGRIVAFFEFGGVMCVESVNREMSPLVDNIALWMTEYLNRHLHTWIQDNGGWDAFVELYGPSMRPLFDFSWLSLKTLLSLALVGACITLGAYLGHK

The test addresses Bcl2 (UniProt P10415 1-239). As to the kind of experiment: SPR. In general terms: In SPR one partner is held on a chip, and binding of the other changes the refractive index at the surface.
With B1, the dissociation constant (Kd) (as a rule, the equilibrium constant for the complex coming apart) worked out at 147 nM. B2: the Kd worked out at 64.1 nM. With B3, the Kd turned out to be 16.8 nM.
